{
  "source": "patent US20150150157A1",
  "about": "“PREPHENATE DEHYDROGENASES AND AROGENATE DEHYDROGENASES THAT ARE INSENSITIVE TO EFFECTOR FEEDBACK INHIBITION AND METHODS OF USING THE SAME” (Wisconsin Alumni Research Foundation, priority 2013, published 2015)",
  "assay_type_in_all_cases": "biochemical",
  "key": {"[1]": {"test_system": "CM activity in the plastid fraction", "assay": "CM activity in plastidic fraction of soybean leaf with and without effector", "settings": "1 mM effector", "description": "(§1) CM activity from crude plant extracts and from cytosolic and plastidic fractions (FIG. 4I) was determined in the presence and absence of 1 mM L-Tyr or L-Trp (FIG. 4I) by detecting phenylpyruvate formation using the same HPLC method for HPLA detection (see above). Assays were set up as described above but were incubated for 60 min at 37° C. before addition of 1 N HCl. Phenylpyruvate was detected by UV absorbance at 270 nm and quantified by comparison to the authentic phenylpyruvate standard (Sigma-Aldrich).\n(§2) Ten grams of 4-week-old soybean leaves were harvested at the end of the night to deplete starch. The fresh tissues were homogenized using a Polytron (Brinkmann, Westhury, N.Y.) in 10 ml of the plastid isolation buffer (0.5 M sorbitol, 20 mM HEPES (pH 7.4), 10 mM KCl, 1 mM MgCl2, 1 mM EDTA, 5 mM DTT and 1% BSA) (Kong and Rawsthorne. Plant J, 6: 795-805 (1994)). The homogenate was filtered through two layers of micracloth. The residual homogenate left on the micracloth was homogenized again in 10 ml of the isolation buffer and passed through two layers of micracloth, which was repeated once more to yield ˜30 ml of homogenate. The combined homogenate was centrifuged at 2,500 g for 5 min. The pellet was washed twice with the isolation buffer, resuspended in 4 ml of lysis buffer (25 mM HEPES (pH 7.5), 50 mM KCl) and left on ice for 20 min to rapture the plastids. […]"}, "[2]": {"test_system": "CM activity in the cytosol", "assay": "CM activity in cytosolic fraction of soybean leaf with and without effector", "settings": "1 mM effector", "description": "as §1, §2"}, "[3]": {"assay": "Inhibition analysis: L-Tyr sensitivity of PDH activity, crude E. coli extract expressing Glyma11g35760", "settings": "for PDH activity: crude E. coli extract", "description": "For recombinant protein expression, the cloned pFT28a vectors were introduced into Rosetta-2 E. coli competent cells (Novagen) and cultured overnight at 37° C., 200 r.p.m. in 10 ml LB medium containing kanamycin (100 μg/ml) and chloramphenicol (100 μg/ml). Two milliliters of the overnight culture were transferred to 50 ml LB medium with the same antibiotics and further incubated at 37° C. and 200 r.p.m. until the OD600 reached 0.3. The temperature was then changed to 18° C. and, after 1 h, isopropyl β-D-I-thiogalactopyranoside (IPTG, […] final concentration) was added to induce recombinant protein expression. After overnight incubation at 18° C. under constant shaking at 200 r.p.m, cultures were harvested by centrifugation at 2,000 g for 30 min at 4° C. and the pellet was resuspended in an appropriate volume of lysis buffer (25 mM HEPES, pH 7, 50 mM KCl, 10% ethylene glycol, 1 mM phenylmethylsulfortyl fluoride (PMSF) and 1 mM DTT) calculated on the basis of the formula (OD600×ml volume of culture)/30. The resuspended pellet was sonicated three times for 15 s. The cell lysate was centrifuged at 16,000 g for 10 min at 4° C. and the supernatant was applied to a column containing 500 μl PerfectPro Ni-NTA resin (5 PRIME, Hamburg, Germany). The column was washed with ten times the bed volume of wash buffer 1 (50 mM sodium phosphate buffer, pH 8.0, 300 mM NaCl, 20 mM imidazole) followed by ten times the bed volume of wash buffer II (50 mM sodium phosphate buffer, pH 8.0, 300 mM NaCl, 40 mM imidazole) and then wash buffer III (50 mM sodium phosphate buffer, pH 8.0, 300 mM NaCl, 60 mM imidazole). The recombinant enzymes containing an N-terminal His6 tag were eluted from the resin with 1 ml of elution buffer (50 mM sodium phosphate buffer, pH. 8.0, 300 mM NaCl, 500 mM imidazole) and desalted as described above. The purity of the purified recombinant enzymes was estimated by running on SDS-PAGE gel (FIG. 12) and analyzing with ImageJ (http://imagej.nih.gov/ij/). The recombinant enzyme of Glyma11g35760 was tested for Tyr sensitivity (FIG. 5A) using crude E. coli extract as its purification was not successful owing to its low expression (FIG. 3B and FIG. 3C) and insolubility.\n(§3) ADH and PDH reactions using GmPDH1, Glyma11g35760, MtPDH1 and AtADH2 (FIG. 5A) contained 200 mM HEPES (pH 7.3), 50 mM KCl, 10% ethylene glycol, 1 mN4 NADP^+ and 1 mM substrate (L-arogenate or prephenate, respectively). Reactions were started by addition of enzyme and incubated at 37° C. for 15 min in the presence of increasing concentrations of effectors: L-Tyr FIG. 5A), L-Phe, L-Trp and HPP. Tyr was dissolved in basic conditions (0.025 N NaOH) to dissolve at high concentrations (up to 10 mM), though 200 mM HEPES maintained the final reaction pH at 7.6. Tyr sensitivity of purified recombinant GmPDH1 and MtPDH1 was also tested at prephenate concentrations ranging from […] to 59 μM, below the K values for GmPDH1 and MtPDH1, while keeping the L-Tyr concentration constant at 1 mM (FIG. 13). Enzyme activity was measured for the production of reduced cofactor (NADPH) at 340 nm using a spectrophotometer, except for crude soybean extracts, which were analyzed by HPLC after 45 min incubation and reduction to HPLA as described above."}, "[4]": {"assay": "Qualitative HPLC detection of PDH activity in E. coli cell lysates expressing candidate enzymes", "settings": "2 mM prephenate, saturating conditions", "description": "ADH and PDH reactions contained 25 mM HEPES (pH 7.5), 50 mM KCl, 10% ethylene glycol, 1 mM NADP (or NAD^+), 2 mM substrate (L-arogenate or prephenate, respectively) unless otherwise noted. Arogenate was prepared by enzymatic conversion from prephenate (Sigma-Aldrich), as previously reported. Reactions were started by addition of enzyme from various sources and incubated at 37′ C. for a given amount of time, as noted below,\nHPLC-based methods were used to directly detect the final products of ADH and PDH assays, Tyr and HPP, respectively from crude E. coli extracts (FIG. 3B and FIG. 3C) and crude plant extracts (FIG. 2A and FIG. 6). For HPLC detection of PDH activity, reactions were incubated for 45 min and terminated by addition of NaBH4, which converts the reaction product HPP (which produced multiple peaks; FIG. 6) into hydroxyphenyllactic acid (HPLA), followed by neutralization with 100 μl of 6 N HCl. The conversion and recovery rate was 80±1.5% s.d. which was taken into account for the calculation of specific activity from crude plant extracts (FIG. 2C). HPLA was detected as a single peak (FIG. 2A) after being separated by HPLC (Agilent 1260, Santa Clara, Calif.) equipped with a ZORBA X SB-C18 column (Agitent) using a 6-min isocratic elution at 25% methanol in 0.1% phosphoric acid, followed by a 20-min linear gradient of 25-60% methanol at a flow rate of 1.0 ml/min. HPLA was detected using UV absorbance at 270 nm and quantified by a calibration curve generated from the authentic HPLA standard (Sigma-Aldrich). For HPLC-based detection of ADH activity (FIG. 3B), reactions were incubated for 45 min and terminated by addition of methanol to a final concentration of 66% (v/v). The product, Tyr, was derivatized with OPA and separated on a ZORBAX eclipse-XDB C18 column (Agilent) using a 30-min linear gradient of 20-45% methanol in 0.1% animonium acetate at a flow rate of 0.8 ml/min. Tyr was detected by UV absorption at 336 nm and quantified on the basis of a calibration curve generated by the authentic Tyr standard (Acros, Geel, Belgium).\nThe crude enzyme extracts were first subjected to PDH and ADH assays using saturating conditions to screen for any detectable PDH and/or ADH activity (FIG. 3B and FIG. 3C). ADH activity was detected from all five candidates. In contrast, PDH activity was detected only in Glyma11a35760 and Glyma18g02650 as well as their closest homolog from Medicago (Mt3g071980) but not in Glyma5g07870, Glyma17g13150 and Glyma14g05990 (FIG. 3C)."}, "[5]": {"assay": "Inhibition analysis: L-Tyr sensitivity of ADH activity of recombinant AtADH2", "settings": "for ADH activity: 1 mM L-arogenate, 1 mM NADP+, 37° C., 15 min", "description": "as §3"}},
  "data": [
    {"molecule": "N[C@@H](Cc1c[nH]c2ccccc12)C(=O)O", "note": "[L-Trp, tryptophan]", "values": [
      {"measurement": "induction of CM activity in the plastid fraction", "setting": "[1]", "result": "approximately threefold"},
      {"measurement": "CM activity in the cytosol", "setting": "[2]", "result": "increased"}
    ]},
    {"molecule": "N[C@@H](Cc1ccc(O)cc1)C(=O)O", "note": "[L-Tyr, Tyrosine]", "values": [
      {"measurement": "CM activity in the plastid fraction", "setting": "[1]", "result": "completely inhibited"},
      {"measurement": "CM activity in the cytosol", "setting": "[2]", "result": "only slightly decreased"}
    ]},
    {"molecule": "Glyma11g35760: soybean PDH enzyme, paralog of Glyma18g02650, tested as crude E. coli extract (protein, Glycine max, soybean PDH enzyme, paralog of Glyma18g02650, tested as crude E. coli extract) MTTMSTSSSSQSLKIGIVGFGNFGQFLAKTMIKQGHTLTATSRSDYSQLCLQMGIHFFRDVSAFLAADIDVIVLCTSILSLSEVVGSMPLTSLKRPTLFVDVLSVKEHPRELLLRELPEDSDILCTHPMFGPQTANNGWTDHTFMYDKVRIRDEATCSSFIQIFATEGCKMVQMSCEEHDRAAAKSQFITHTIGRTLGEMDIQSTPIDTKGFETLVKLKETMMRNSFDLYSGLFVYNRFARQELENLEHAFYKVKETLMIQRSNGEQGHKRTES", "values": [
      {"measurement": "inhibition of PDH activity by L-Tyr", "setting": "[3]; E. coli extract expressing the enzyme", "result": "not inhibited"},
      {"measurement": "PDH activity", "setting": "[3]; L-Tyr 0 mM", "result": "1219 ± 76", "unit": "pKat/mg"},
      {"measurement": "PDH activity", "setting": "[3]; L-Tyr 0.01 mM", "result": "1211 ± 39", "unit": "pKat/mg"},
      {"measurement": "PDH activity", "setting": "[3]; L-Tyr 0.1 mM", "result": "1173 ± 16", "unit": "pKat/mg"},
      {"measurement": "PDH activity", "setting": "[3]; L-Tyr 1.0 mM", "result": "1250 ± 63", "unit": "pKat/mg"},
      {"measurement": "PDH activity", "setting": "[3]; L-Tyr 10 mM", "result": "1109 ± 79", "unit": "pKat/mg"},
      {"measurement": "PDH activity (qualitative detection)", "setting": "[4]", "result": "detected"}
    ]},
    {"molecule": "Glyma14g05990: soybean enzyme having predominately arogenate dehydrogenase activity (protein, Glycine max) MSTWSLKIGVVGFGSFGQFLAKTMIKQGHTLRATSRTDYSLLCLPMGIQFFRDVAAFLEADNDVILVCTSILSLSEVLSSMPLTCLKRSTLFVDVLSVKEHPRNLLIKVLPEESDILCTHPMFGPDSGKDGWQDLTFVYDKVRIRDEAICSSFLHIFASEGCRMLQMSCEEHDKIAAKSQFITHTIGRTLAEMDIKSTPIDTKGFHSLVQLKDTTIRDSFDLYSGLFLHNRFAVQELENLEHALHKVKEMLVQRKSEELGLEKTEC", "values": [
      {"measurement": "PDH activity (qualitative detection)", "setting": "[4]", "result": "not"}
    ]},
    {"molecule": "AtADH2: Arabidopsis thaliana arogenate dehydrogenase 2, recombinant enzyme, inhibited by L-Tyr (protein, UniProt Q9LMR3 37-358, looked up) Arogenate dehydrogenase 2, …: IDAAQIFDYETQLKSEYRKSSALKIAVLGFGNFGQFLSKTLIRHGHDLITHSRSDYSDAANSIGARFFDNPHDLCEQHPDVVLLCTSILSTESVLRSFPFQRLRRSTLFVDVLSVKEFPKALFIKYLPKEFDILCTHPMFGPESGKHSWSGLPFVYDKVRIGDAASRQERCEKFLRIFENEGCKMVEMSCEKHDYYAAGSQFVTHTMGRVLEKYGVESSPINTKGYETLLDLVENTSSDSFELFYGLFMYNPNALEQLERLDMAFESVKKELFGRLHQQYRKQMFGGEVQSPKKTEQKLLNDGGVVPMNDISSSSSSSSSSS", "values": [
      {"measurement": "reduction of ADH activity", "setting": "[5]; 100 μM L-Tyr", "result": "~75", "unit": "%"},
      {"measurement": "ADH activity", "setting": "[5]; L-Tyr 0 mM", "result": "923 ± 34", "unit": "uKat/mg"},
      {"measurement": "ADH activity", "setting": "[5]; L-Tyr 0.01 mM", "result": "766 ± 35", "unit": "uKat/mg"},
      {"measurement": "ADH activity", "setting": "[5]; L-Tyr 0.1 mM", "result": "251 ± 45", "unit": "uKat/mg"},
      {"measurement": "ADH activity in the presence of L-Tyr", "setting": "[5]; ≧1 mM L-Tyr", "result": "abolished"}
    ]}
  ]
}
